How the values were obtained:
Test in all cases: Kinetic parameters of conversion of peptide substrates by murine isoQC
Format in all cases: biochemical, mouse
Details in all cases: pH 8.0; 30.0 °C
[1] = substrate: NC(=O)CC[C@H](N)C(=O)N[C@@H](CCC(=O)O)C(=O)O
[2] = substrate: NC(=O)CC[C@H](N)C(=O)NCC(=O)N1CCC[C@H]1C(=O)O
[3] = substrate: C[C@H](NC(=O)[C@H](Cc1ccc(O)cc1)NC(=O)[C@@H](N)CCC(N)=O)C(=O)O

B1: mouse-isoQC (Mus musculus; I74N) (protein)
chain: EEMSRSRDLRVPLNGSLSEAKLRLVVGQLDPQRLWGTFLRPLLIVRPPGSSGNLQVRKFLEATLQSLSAGWHVELDPFTASTPLGPLDFGNVVATLDPGAARHLTLACHYDSKFFPPGLPPFVGATDSAVPCALLLELVQALDAMLSRIKQQAAPVTLQLLFLDGEEALKEWGPKDSLYGSRHLAQIMESIPHSPGPTRIQAIELFVLLDLLGASSPIFFSHFPRTARWFQRLRSIEKRLHRLNLLQSHPQEVMYFQPGEPPGPVEDDHIPFLRRGVPVLHLIATPFPAVWHTPADTEANLHPPTVHNLSRILAVFLAEYLGL
notes: starting with codon 43 (Glu 43) of the open reading frame (counting from methionine II); yeast alpha-factor secretion signal (N); made in house; host or cells: Pichia pastoris X-33
[1]
  Km: 470 ± 40 µM
  kcat: 7.79 ± 0.44 s⁻¹
  kcat/Km: 16880 ± 2320 M⁻¹ s⁻¹
[2]
  Km: 102 ± 6 µM
  kcat: 11.4 ± 0.4 s⁻¹
  kcat/Km: 111440 ± 6810 M⁻¹ s⁻¹
[3]
  Km: 58 ± 4 µM
  kcat: 22.9 ± 0.86 s⁻¹
  kcat/Km: 394230 ± 21360 M⁻¹ s⁻¹

Source: US8889709B2, “Use of isoQC inhibitors in the treatment and prevention of inflammatory diseases or conditions” (Probiodrug AG, priority 2006, dated 2014)
